Results as given in paper PMC12631878, “Single‐Cell Transcriptome Analysis Reveals That Hmga2 Regulates Neuroinflammation and Retinal Function by Modulating Müller Cell Autophagy Through PI3K/AKT Signaling Following MCAO‐Induced Retinal Ischemia” (Advanced Science, 2025).

Biological target: PI3K (protein used in biolayer interferometry) (UniProt P26450 1-724)
Experiment: BLI; biolayer interferometry; format and conditions not told in the main text (Figure S4)

Chain of PI3K (protein used in biolayer interferometry) (P26450 2-724): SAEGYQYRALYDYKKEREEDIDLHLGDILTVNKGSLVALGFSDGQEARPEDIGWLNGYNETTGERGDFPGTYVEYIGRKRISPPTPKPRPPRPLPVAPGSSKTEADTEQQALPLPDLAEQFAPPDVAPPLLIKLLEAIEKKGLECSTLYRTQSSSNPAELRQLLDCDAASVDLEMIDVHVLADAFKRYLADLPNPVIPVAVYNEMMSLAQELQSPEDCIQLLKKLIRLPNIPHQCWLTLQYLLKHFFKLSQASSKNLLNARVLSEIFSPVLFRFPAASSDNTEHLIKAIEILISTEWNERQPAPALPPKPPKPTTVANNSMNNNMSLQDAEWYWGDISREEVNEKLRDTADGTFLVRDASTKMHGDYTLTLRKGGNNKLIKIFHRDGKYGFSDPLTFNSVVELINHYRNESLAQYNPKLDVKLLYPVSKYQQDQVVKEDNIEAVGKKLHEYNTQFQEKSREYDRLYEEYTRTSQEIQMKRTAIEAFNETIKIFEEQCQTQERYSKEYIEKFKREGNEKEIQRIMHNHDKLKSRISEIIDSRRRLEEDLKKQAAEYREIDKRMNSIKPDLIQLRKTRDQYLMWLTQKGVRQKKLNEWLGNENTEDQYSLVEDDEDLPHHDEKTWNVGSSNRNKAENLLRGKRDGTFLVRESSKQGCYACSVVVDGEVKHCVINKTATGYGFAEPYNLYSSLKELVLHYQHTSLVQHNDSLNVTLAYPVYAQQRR

Kd: 12 nM
B1: Hmga2 (protein used in biolayer interferometry) (natural protein, UniProt P52927 1-108, looked up)
chain: MSARGEGAGQPSTSAQGQPAAPVPQKRGRGRPRKQQQEPTCEPSPKRPRGRPKGSKNKSPSKAAQKKAETIGEKRPRGRPRKWPQQVVQKKPAQETEETSSQESAEED
notes: Hmga2 as used in the biolayer interferometry assay; The main text has no methods for the BLI experiment
